Source: US20120237528A1 (Janssen / Centocor, published 2012)
Read-outs that look alike come from different tables or passages of the source.

T1: Cynomolgous monkey (cyno) TF-ECD with His Tag (cynomolgus monkey, UniProt P13726 33-251 (human entry))
T1 construct: also called cyno antigen
T1 chain: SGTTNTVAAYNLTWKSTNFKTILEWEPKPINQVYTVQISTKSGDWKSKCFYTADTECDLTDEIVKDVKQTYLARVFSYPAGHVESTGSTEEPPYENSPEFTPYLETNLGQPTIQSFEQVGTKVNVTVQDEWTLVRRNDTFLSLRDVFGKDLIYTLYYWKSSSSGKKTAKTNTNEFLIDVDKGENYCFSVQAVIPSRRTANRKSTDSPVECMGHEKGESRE

B1: M61 (antibody, V domains shown)
VH: EVQLVQSGAEVKKPGESLRISCKGSGYTFITYWIEWVRQMPGKGLEWMGDILPGSGSTNYSPSFQGHVTISADKSISTAYLQWSSLKASDTAMYYCARSGYYGNSGFAYWGQGTLVTVSS
VL: DIVMTQTPLSLSVTPGQPASISCKSSQSLLSSGNQKNYLTWYLQKPGQPPQLLIYWASTRESGVPDRFSGSGSGTDFTLKISRVEAEDVGVYYCQNDYTYPLTFGQGTKLEIK
notes: complete MAb; FR4 is its own entry; also called H22/L5
B2: M1593-DE (hIgG1 with S239D/I332E) (antibody)
heavy: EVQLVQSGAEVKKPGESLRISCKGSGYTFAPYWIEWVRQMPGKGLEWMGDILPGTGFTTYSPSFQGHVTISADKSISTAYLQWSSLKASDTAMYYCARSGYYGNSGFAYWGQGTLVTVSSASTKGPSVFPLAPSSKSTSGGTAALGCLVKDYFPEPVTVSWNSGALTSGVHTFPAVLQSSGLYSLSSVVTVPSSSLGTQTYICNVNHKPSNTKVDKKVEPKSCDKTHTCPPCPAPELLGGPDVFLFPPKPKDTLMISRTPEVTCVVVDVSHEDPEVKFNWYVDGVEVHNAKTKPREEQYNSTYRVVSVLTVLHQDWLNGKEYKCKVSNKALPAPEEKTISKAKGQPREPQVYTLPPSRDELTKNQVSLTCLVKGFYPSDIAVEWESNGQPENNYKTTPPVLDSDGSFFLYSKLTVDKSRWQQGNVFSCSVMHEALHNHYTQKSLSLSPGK
light: DIVMTQTPLSLPVTPGEPASISCKSSQSLLSSGNQKNYLTWYLQKPGQSPQLLIYWASTRESGVPDRFSGSGSGTDFTLKISRVEAEDVGVYYCQNDYTYPLTFGQGTKLEIKRTVAAPSVFIFPPSDEQLKSGTASVVCLLNNFYPREAKVQWKVDNALQSGNSQESVTEQDSKDSTYSLSSTLTLSKADYEKHKVYACEVTHQGLSSPVTKSFNRGEC
notes: copies: 2 + 2
B3: M1593-LF (hIgG1 produced in host subline producing reduced fucosylation in glycans) (antibody)
heavy: not shown
light: B2 light
modifications: glycan with low fucose content (less than 10% fucosylated)
notes: same chains as M1593 (IgG1/Kappa), made in a low-fucose CHO subline; copies: 2 + 2

Legend:
[1] = molecular target: T2, recombinant extracellular domain (ECD) of human TF, amino acid 1-219 of the mature chain, C-terminal His6-tag (human, UniProt P13726 33-251); assay: Biacore, KD compared with the reference (0.56 nM, the value of M1 in Table 5)
T2 construct: expressed in a mammalian system; used for ELISA and Biacore; biotinylated by NHS-ester for the Fab ELISA; also called His6-TF-ECD1-219; HumanTF1-219

[2] = molecular target: T2, recombinant extracellular domain (ECD) …; assay: Biacore
[3] = molecular target: T3, endogenous human tissue factor on MDA-MB-231 breast cancer cells (human, UniProt P13726 33-295); assay: cell-based or functional assay
[4] = molecular target: T3, endogenous human tissue factor on …; assay: FACS on MDA-MB-231 cells
Description: This assay is used to detect the direct binding of antibody to endogenouse human TF expressed in breast cancer cells. Prepare four point titrations of the test mAbs in FACS buffer (1% FBS in PBS) in duplicate. Start a titration at 1,000 ng/ml with 1:4 dilutions. […] Unstained cells and secondary antibody, Cy-5 conjugated Goat anti-Human IgG Fc antibody in FACS buffer 1:200, is used as controls and prepared immediately before use.
Using standard tissue culture technique, rinse adherent MDA-MB-231 cells in culture flask with once with PBS (w/o Ca+2/Mg+2). Lift cells with Versene and count the cells and seed 200,000 cells per well in a polystyrene V-bottom plate. FACS Analysis Protocol: Tissue Factor Binding. Pellet the cells in a Allegra X-15R centrifuge at 450×g for 3 minutes at 4° C., resuspend in FACS Buffer (2% FBS in PBS) and plate 200,000 cells per well in 200 uL. Pellet cells at 450×g for 3 minutes at 4° C. Discard supernatants and add 100 uL/well test or control mAbs to designated wells and incubate on ice or at 4° C. for 1 hour (+/−10 minutes). Pellet cells at 450×g for 3 minutes at 4° C. Discard supernatants and wash cells once in FACS buffer. Resuspend cells in 200 uL/well FACS buffer and pellet cells at 450×g for 3 minutes at 4° C. Discard supernatants and add 100 uL/well secondary antibody to designated wells (triterate), and incubate on ice for 1 hour (+/−10 minutes). Pellet cells at 450×g for 3 minutes at 4° C. Discard supernatants and wash cells 2 times in FACS buffer before resuspending the cells in 200 uL/well FACS Buffer (triterate). Pellet cells at 450×g for 3 minutes at 4° C. Discard supernatant and resuspend cells in 100 uL/well CytoFix Buffer. Analyze reactions by flow cytometry (BD FACSArray). The FlowJo Software is used for FACS data analysis by gating the main population of cells in the unstained control well and applying the gate to the whole data set. The data is exported as a table of the geometric mean fluorescence intensity (MFI) in the red channel for the applied gate.

[5] = molecular target: T2, recombinant extracellular domain (ECD) …; assay: TF-ECD binding ELISA, chemiluminescent
[6] = molecular target: T1, Cynomolgous monkey (cyno) TF-ECD with …; assay: TF-ECD binding ELISA, chemiluminescent
[7] = molecular target: T3, endogenous human tissue factor on …; assay: cell-based or functional assay; remark: listed apart in the source
[8] = molecular target: T2, recombinant extracellular domain (ECD) …; assay: Biacore; remark: listed apart in the source
[9] = molecular target: T1, Cynomolgous monkey (cyno) TF-ECD with …; assay: Biacore
[10] = molecular target: Innovin, lyophilized recombinant human tissue factor combined with phospholipids (human, UniProt P13726 33-295, limits assumed); assay: cell-based or functional assay
[11] = molecular target: T2, recombinant extracellular domain (ECD) …; assay: Biacore; remark: listed apart in the source
[12] = molecular target: T4, recombinant human FcγIIIa receptor (human, UniProt P08637 17-208, limits assumed); assay: cell-based or functional assay
T4 sequence (P08637 17-208 limits assumed): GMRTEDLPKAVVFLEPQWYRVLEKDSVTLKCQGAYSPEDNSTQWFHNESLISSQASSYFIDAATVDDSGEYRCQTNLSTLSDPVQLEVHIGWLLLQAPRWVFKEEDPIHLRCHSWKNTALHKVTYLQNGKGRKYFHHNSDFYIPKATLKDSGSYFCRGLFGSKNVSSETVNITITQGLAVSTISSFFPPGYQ

[13] = molecular target: T4, recombinant human FcγIIIa receptor; assay: Fc receptor binding assay
[14] = molecular target: T4, recombinant human FcγIIIa receptor; assay: Fc receptor binding assay (method of a co-pending application or Biacore)

fold lower KD than the murine parent MAb [1] [fold]	fold lower KD than the murine parent MAb (M1) [2] [fold]	IL-8 Induction, Ave % inhibition [3] [%]	Whole Cell Binding, Ave % [4] [%]	EC50 [5] [ng/mL]	EC50 [6] [ng/mL]	% IL-8 Inhibition [7] [%]	Kd [8] [nM]	Kd [9] [nM]	T½ Max (seconds), coagulation of human plasma [10] [s]	Kd [11] [nM]	koff [11] [s⁻¹]	kon [11] [M⁻¹ s⁻¹]	EC50 (read off the curve) [12] [ng/mL]	fold tighter binding than the unmodified IgG1 M1593 [13] [fold]	Kd [14] [nM]	Binder
2.5	2.5	112	111	8.3	24.1	107	0.21	1.71	186	0.2	1.9e-05	94100				B1
													~5	40	5	B2
													~6	18	12	B3
